From patent US20080248008A1, “Inhibitors of Protein Kinase a Anchoring” (priority 2004, published 2008) come the findings set out here.

The target of test [1] is T1, RI (A98S) (Bos taurus, UniProt P00514, A98S).
T1 construct: made in house; host or cells: E. coli BL21 (B121 [sic])
As to the kind of experiment: R-overlay (solid-phase binding) of 32P-labelled RI on membrane-synthesized peptides. Particulars: for RI binding (RI-32P-overlay, autoradiography): peptides on membrane, qualitative. Set-up: species or system bovine. On the procedure: Autospot Peptide Array. Peptide arrays were synthesized on cellulose paper by using an Autospot Robot ASP222 (ABiMED, Langenfeld, Germany) as described (Frank, R., 1992, Tetrahedron 48, 123-132) or Multipep automated peptide synthesizer (INTAVIS Bioanalytical Instruments AG, Koeln, Germany) as described (Frank, R., 1992, Tetrahedron 48, 123-132).
R-overlay. R-overlays were conducted as described, using ^32P-labeled recombinant murine RII (Hausken, Z. E., et al., 1998 in Protein Targeting Protocols, ed. Clegg, R. A. (Humana, Totowa, N.J.), Vol. 88, pp. 47-64) or recombinant bovine RI (A98S) or by cold RI-overlay where bound RIα was detected by Western blot. Cold RI-overlay was performed by incubating the membranes with 250 nM RI overnight at 4° C., then the membranes were washed five times in TBST for 5 min. Detection of RI was performed using an anti-RI rabbit polyclonal antibody (Santa Cruz) at a concentration of 0.2 μg/μl for 1 hour at 4° C. Then the membranes were washed five times for 5 minutes in PBS followed by incubation with HRP-conjugated anti-rabbit IgGs (1:5000) for 1 hour at 4° C. The membranes were washed in PBS as described above before detection by Supersignal West Dura Extended Duration Substrate (Pierce).
Densitometric analysis. The densitometric analysis was performed using Scion Image (www.scioncorp.com) (Scion Coorperation, Mo., USA) or Quantity One version 4.5.0, (BioRad).

Test [2] has as its target T2, PKA-RIIα (Homo sapiens, UniProt P13861). As to the kind of experiment: Immunofluorescence of PKA-RIIα at centrosomes in human T cells. It counts as cell-based. Set-up: endogenous in cells; host or cells: human peripheral blood CD3+ T cells. Particulars: human peripheral blood T cells. On the procedure:
Blots were developed by using Supersignal West Pico substrate (Pierce). For immunofluorescence polyclonal and monoclonal antibodies against RIα (Biogenesis), RIIα (Transduction laboratories) and AKAP450 (A24, Tasken et al., 2001, J. Biol. Chem, 276:21999-22002) were used as primary antibodies. Secondary antibodies (all Molecular Probes) were Alexa-488 conjugated anti-mouse and anti-rabbit IgG (both goat) and Alexa-555 anti-rabbit IgG (goat).
Immunofluorescence analysis of cells was performed as previously described (Collas, P. et al., 1996, J. Cell Biol. 135, 1715-1725). RI was detected by using an anti-RI monoclonal antibody (Transduction Laboratories) as a primary antibody at a […] and Alexa-488 as a secondary antibody (1:600, Goat anti Mouse IgGs, Molecular Probes). Immunofluorescence was performed on Y1 cells attached to collagen/fibronectin coated coverslips. Mitochondria were stained using MitoTracker Red CMXRos (Molecular Probes) in fresh medium with incubation at 37° C. for 30 min prior to cell fixation. All cells were washed in PBS, fixed with 3% paraformaldehyde and permeabilised using 0.1% Triton X-100. […] Alternatively, fluorescently labeled cells were examined using a Leica TCS SP1 confocal fluorescence microscope (Leica, Heidelberg, Germany) equipped with an Ar (488 nm) and two He/Ne (543 and 633 nm) laser lines. […]

In test [3] the target is T2, PKA-RIIα. The test can be described thus: Displacement of PKA-RII from the particulate fraction in T cells. The test is classed as cell-based. Set-up: endogenous in cells; host or cells: human peripheral blood CD3+ T cells. Particulars: 25 μM or 50 μM. How it is done: Displacement of PKA-RII from the particulate Fraction in T-cells. Negatively selected CD3^+ T-cells (20×10^6/3 ml/well) were cultured in 6-well plates with 0-50 μM Arg11-SuperAKAPIS (or 0-50 μM M3-Arg11) for 12 hours. Cells were lysed in 250 μl lysis buffer (50 mM Tris pH 7.4, 100 mM NaCl, 5 mM EDTA, 50 mM NaF, 10 mM Na-pyrofosfat, 1 mM Na3VO4, 1 mM PMSF, 0.7% triton X-100) and centrifuged at 14 000×g for 10 min. The sedimented proteins were resuspended in loading dye before being resolved by SDS/PAGE and detected by immunoblotting.
To assess the effect of MEME3-Arg11 on anchoring of PKA type II, T cells were treated with MEME3-Arg11 or Arg11-super-AKAP-is (as a positive control) and particulate fractions were isolated, followed by 10% PAGE and blotting onto a PVDF membrane (fraction no. 2-4, FIG. 17 in upper panel) and analysed by immunoblotting using antibodies against PKA-RIIα (FIG. 17, upper panel). The levels of PKA-RIIα in the particulate fractions were measured by densitometry of the autoradiograms (lower panel). The level of PKA-RIIα was set relative to that of the internal standard PKCα.

Entries after “also recorded” stand apart in the source; their conditions may differ. Ends that are not written are not given here.

T1 sequence (P00514 whole entry A98S): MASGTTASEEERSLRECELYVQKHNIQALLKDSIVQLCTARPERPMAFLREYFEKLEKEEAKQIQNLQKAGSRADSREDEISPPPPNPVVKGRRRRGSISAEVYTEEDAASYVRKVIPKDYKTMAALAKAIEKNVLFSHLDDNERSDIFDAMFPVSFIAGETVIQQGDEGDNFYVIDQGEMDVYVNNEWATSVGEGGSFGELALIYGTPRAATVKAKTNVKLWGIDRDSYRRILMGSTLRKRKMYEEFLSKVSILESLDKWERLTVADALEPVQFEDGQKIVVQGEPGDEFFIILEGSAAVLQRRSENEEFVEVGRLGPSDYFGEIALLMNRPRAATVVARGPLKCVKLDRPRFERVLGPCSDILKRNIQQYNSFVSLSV
T2 sequence (P13861 whole entry): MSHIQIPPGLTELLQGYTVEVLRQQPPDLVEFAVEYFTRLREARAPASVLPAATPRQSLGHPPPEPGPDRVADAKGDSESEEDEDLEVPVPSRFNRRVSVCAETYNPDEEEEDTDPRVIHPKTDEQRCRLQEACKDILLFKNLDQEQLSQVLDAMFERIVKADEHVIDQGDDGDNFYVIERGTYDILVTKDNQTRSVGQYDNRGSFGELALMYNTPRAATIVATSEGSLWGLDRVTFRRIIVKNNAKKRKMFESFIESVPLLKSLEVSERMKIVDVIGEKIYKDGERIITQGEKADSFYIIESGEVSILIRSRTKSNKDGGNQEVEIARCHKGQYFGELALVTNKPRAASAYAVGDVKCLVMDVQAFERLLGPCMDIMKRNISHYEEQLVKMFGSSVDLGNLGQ

With LEQYANQLADQIIKEATe [E18e], the “R-binding of D-amino acid derivatives (RIα and RIIα overlay)” value in test [1] (peptidomimetics on membrane) was “accepted”.

Consider “DELKQYANQLASQVIKEATE [PDSM consensus sequence]”, for which the “RI binding (RI-32P-overlay, autoradiography)” value in test [1] is on record as “higher affinity for RI than the other R-binding motifs”. For the substance LKQYANQLASQVIKEATE [PDSM], the “RI binding (RI-32P-overlay, autoradiography)” value in test [1] is recorded as “same RI binding affinity as the full length PDSM sequence; also recorded: much higher RIα affinity compare to that of PV-38; also recorded: higher binding to RIα”. As for “Arg11-super-AKAP-is: RIIα specific peptide, SuperAKAPIS (QIEYVAKQIVDYAIHQA) with eleven arginine residues (also: eleven arginine residues attached (Arg11), place not given here) [reference compound]”, the “displacement of PKA-RIIα from centrosomes” value in test [2] is listed as “specifically displaced PKA-RIIα”. In addition, the “reduction of PKA-RIIα in particulate fraction” value in test [3] is given as “approximately 80%”.
